Laboratory results as given in PMC6459815.

Target: recombinant CD47 (integrin associated protein), K24-S139, GST-fused (human)
Assay: SPR; Biacore X100; recombinant CD47 immobilised on a CM5 chip (amine coupling), analyte at 0.125, 0.25, 0.5, 1 and 2 uM, single-cycle kinetics, 120 s contact, 180 s dissociation (last cycle 580 s); HBS-EP+ (10 mM HEPES pH 7.4, 150 mM NaCl, 3 mM EDTA, 0.05% P20)

Substance: recombinant PfMSA180-Tr4 (PfMSA180 truncate 4, residues A805-P1093) (domain or fragment)
- Kd: 2.06 nM
- stoichiometry N: 1
